Key:
[1] = target: IL-4R-ECD-FLAG (human) (UniProt P24394); experiment: ELISA on coated IL-4R-ECD-FLAG (100 ng/ml), HRP goat anti-human secondary
[2] = target: Biotinated IL-4R-ECD-hFc (human) (UniProt P24394); experiment: blocking ELISA: coated IL-4-hFc (2000 ng/ml), biotinylated IL-4R-ECD-hFc (100 ng/ml) with antibody in dilution series, Streptavidin-HRP
[3] = target: IL-4R-ECD-FLAG (human) (UniProt P24394); experiment: SPR, Biacore T200; antibody captured on Protein A/G CM5 chip, IL-4R-ECD-FLAG injected

EC50 [1]: 0.0125 µg/mL
IC50 [2]: 0.138 µg/mL
Kd [3]: 0.671 nM
koff [3]: 3.95e-05 s⁻¹
kon [3]: 58800 M⁻¹ s⁻¹
B1: Dupilumab (antibody, INN chains, looked up, V domains shown)
VH: EVQLVESGGGLEQPGGSLRLSCAGSGFTFRDYAMTWVRQAPGKGLEWVSSISGSGGNTYYADSVKGRFTISRDNSKNTLYLQMNSLRAEDTAVYYCAKDRLSITIRPRYYGLDVWGQGTTVTVSS
VL: DIVMTQSPLSLPVTPGEPASISCRSSQSLLYSIGYNYLDWYLQKSGQSPQLLIYLGSNRASGVPDRFSGSGSGTDFTLKISRVEAEDVGFYYCMQALQTPYTFGQGTKLEIKR

Source: patent US20210206861A1
